Reference: PMC3406685

Experiments:
Experiment in all cases: real-time label-free cell adhesion
[1] = target: Collagen Toolkit II peptide II-27
[2] = target: Collagen Toolkit III peptide III-7
[3] = target: triple-helical peptide II-27-A (GVOGEA within (GPP)5 hosts)

Q: With “integrin α1β1 on rat pheochromocytoma PC12 cells (from UniProt P18614 29-1180; P49134 21-799) (receptor)” as the substance, how does the increase of adhesion on substitution of Mg2+ with Mn2+ [1] read?
A: 65%

Q: What about the increase of adhesion on substitution of Mg2+ with Mn2+ [2] of the same substance?
A: 26%

Q: What about the adhesion relative to that on II-27 [3] of the same substance?
A: 40%

Q: And the increase of adhesion on substitution of Mg2+ with Mn2+ [3]?
A: 13%
